Measurements: patent US20160058829A1, “ANTI-FIBROTIC PEPTIDES AND THEIR USE IN METHODS FOR TREATING DISEASES AND DISORDERS CHARACTERIZED BY FIBROSIS” (Thrasos Innovation, Inc., priority 2011, published 2016)
“Also recorded” adds a separate entry of the source. Like-named read-outs stand apart in the source and are kept apart here. Positions of bridges follow the written chain, without caps; N, C: chain ends.

T1: Alk-6 (Homo sapiens, UniProt O00238)
T1 construct: Highly purified extra-cellular domain (ECD) of Alk-3 or Alk-6 (expressed as a fusion protein with Fc domain) served as a receptor
T1 sequence (O00238 14-126 limits assumed): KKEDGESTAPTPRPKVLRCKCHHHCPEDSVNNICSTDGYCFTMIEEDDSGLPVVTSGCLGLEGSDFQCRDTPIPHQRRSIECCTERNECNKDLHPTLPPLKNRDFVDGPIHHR

B1: BMP-7: bone morphogenetic protein-7; recombinant human BMP7, positive control (protein)
chain: STGSKQRSQNRSKTPKNQEALRMANVAENSSSDQRQACKKHELYVSFRDLGWQDWIIAPEGYAAYYCEGECAFPLNSYMNATNHAIVQTLVHFINPETVPKPCCAPTQLNAISVLYFDDSSNVILKKYRNMVVRACGCH

Tests used:
[1] = Pharmacokinetics and tissue distribution of 125I-labeled THR-123; assay type: in vivo, Wistar rats
Text: FIG. 45A-FIG. 45G Pharmacokinetics of THR-123. FIG. 45A. BMP7 structure figure with the residue weights resulting from the analysis mapped on to it. FIG. 45B, FIG. 45C. Radio-ligand receptor binding assays specific for individual type I receptors, Alk-3 (FIG. 45B) and Alk-6 (FIG. 45C). Highly purified extra-cellular domain (ECD) of Alk-3 or Alk-6 (expressed as a fusion protein with Fc domain) served as a receptor. In each assay purified receptor was immobilized on each well and peptide analog or unlabeled BMP7 was added, followed by ^125I-labeled BMP7. Radiolabeled BMP7 complex was counted in an auto-gamma counter. Results were expressed as the mean±s.e.m. Unlabeled BMP7, which served as a positive control in both assays, gave linear dose-related response curves. FIG. 45D, FIG. 45E. Concentration of THR-123 in systemic circulation of Wistar rats following iv injection of THR-123 (^125I-Tyr) via the tail vein determined by total radioactivity measurement. […] FIG. 45F. Tissue distribution of ^125I-THR-123. Six hours after intravenous administration of ^125I labeled-THR-123 in rats at a dose of 6.25 mg/kg-body weight, tissues were harvested and analyzed by automatic gamma well counter. […] FIG. 45G. Oral administration of THR-123 and elimination of THR-123 from the body. Radioactivity of orally administrated ^125I labeled-THR-123 at a dose of 5 mg/kg body weight was localized in the kidney between 1 and 6 hours after administration and peaked at around 3 hours.
The persistence of THR-123 in systemic circulation was evaluated using iv-administered ^125I-labeled compound and following the radioactivity decay.

NP-1 cells = test: TGF-β-induced EMT in NP-1 cells (inhibition and reversal); assay type: cell-based; details: added after EMT induction for additional 48 hrs; BMP 7 1 μg/ml, THR-123 10 μM
Alk-6 = target: T1, Alk-6; test: Radio-ligand (125I-BMP7) receptor binding assay, Alk-6 ECD
Text: FIG. 45A-FIG. 45G Pharmacokinetics of THR-123. FIG. 45A. BMP7 structure figure with the residue weights resulting from the analysis mapped on to it. FIG. 45B, FIG. 45C. Radio-ligand receptor binding assays specific for individual type I receptors, Alk-3 (FIG. 45B) and Alk-6 (FIG. 45C). Highly purified extra-cellular domain (ECD) of Alk-3 or Alk-6 (expressed as a fusion protein with Fc domain) served as a receptor. In each assay purified receptor was immobilized on each well and peptide analog or unlabeled BMP7 was added, followed by ^125I-labeled BMP7. Radiolabeled BMP7 complex was counted in an auto-gamma counter. Results were expressed as the mean±s.e.m. […] Concentration of THR-123 in systemic circulation of Wistar rats following iv injection of THR-123 (^125I-Tyr) via the tail vein determined by total radioactivity measurement. […] Six hours after intravenous administration of ^125I labeled-THR-123 in rats at a dose of 6.25 mg/kg-body weight, tissues were harvested and analyzed by automatic gamma well counter. […] Radioactivity of orally administrated ^125I labeled-THR-123 at a dose of 5 mg/kg body weight was localized in the kidney between 1 and 6 hours after administration and peaked at around 3 hours.
First, specific affinity of the extra cellular domains (ECD) of the several type I receptors of BMPs to THR-123 was analyzed. […]

MCT cells = test: TGF-β-induced EMT in MCT cells (inhibition and reversal); assay type: cell-based; details: for reversal of EMT: additional 48 h after EMT induction, BMP-7 1 μg/ml; for percentage of cells that regained epithelial characteristics (length to width ratio 3 or less): reversal experiment, MCT cells
Protocol: FIG. 52A-FIG. 52E THR-123 inhibits epithelial-mesenchymal transition in MCT cells. Inhibition of EMT by THR-123. […] FIG. 52D, FIG. 52E qPCR analysis for mesenchymal marker CTGF (FIG. 52D) and Snail1 (FIG. 52E). Total RNA was extracted from cells. 1 μg of total RNA was used for generating complementary cDNA and subsequently qPCR was performed. N=3. Data was expressed as mean±s.e.m. in the graph.
FIG. 54A-FIG. 54H THR-123 reverses TGF-β-induced EMT in MCT cells. FIG. 54A-FIG. 54E. Cell were induced EMT by 48 h incubation of TGF-β and EGF (FIG. 54E). After induction of EMT, cells are incubated with either BMP-7 (1 μg/ml) (FIG. 54C), THR-123 (10 μM) (FIG. 54D) or control peptide (FIG. 54E) for an additional 48 h. […] FIG. 54F. Ratio of length to width was calculated in reversal experiment. 5 representative pictures of the cells in different areas of the well, were taken by using the inverted microscope. A total of 100 cells were analyzed (20 cells per picture). […] The data are presented mean±s.e.m. in the graph. FIG. 54G: 3 or less in length to width ratio in MCT cell was estimated as epithelial characteristics and the percentage of epithelial characteristics in each experimental setting are estimated. 52% of BMP7 and 41% of THR-123 treated MCT cells regained epithelial characteristics. Experiments were repeated three times.
EMT was induced in NP1 cells or MCT cells by incubation with 3 ng/ml recombinant human […] for 48 h. When EMT occurred, the medium was removed and replaced with THR-123 (10 μM) or recombinant human BMP7 (100 ng/ml) in DMEM. After 48 h, the cells were characterized by immunocytochemistry using primary monoclonal antibodies to E-cadherin ([…]) and rhodamine-conjugated secondary antibodies (Jackson Immunoresearch, West Grove, Pa.) as previously described. The staining was visualized by fluorescence microscopy and documented representative pictures using Spot advanced software (Carl Zeiss, Oberkochen, Germany). Also protein and total RNA were harvested at the end of experiment. For the morphometric analysis for EMT, length/width of cells in bright field pictures are measured by image J software. The ratio of length/width was calculated.

[2] = tested on: cisplatin-induced nephrotoxicity in rats; test: Cisplatin-induced nephrotoxicity in rats; assay type: in vivo; details: cisplatin plus THR-123 versus cisplatin alone
Text: FIG. 38 Tumor necrosis factor-a (TNF-a) production via p38 mitogen-activated protein kinase (MAPK) is one of the pivotal mechanisms in the development of AKI induced by a nephrotoxic agent, cisplatin (Ramesh, G and Reeves, W B. Am J Physiol Renal Physiol 289:F166-F174, 2005). Therefore THR-123 was further examined to determine if the compound is capable of inhibiting cisplatin-induced nephrotoxicity in animals. The upper right and left panels in the figure show Kidney sections immunostained for ICAM-1 expression and the lower right and left panels show immunostaining for the presence of macrophages. The kidney sections in the left column were treated with cisplatin alone and the right column panels were treated with cisplatin and THR-123. Arrows in the upper panel indicate ICAM-1 expression which was reduced by THR-123. Arrows in the lower panel indicate infiltration of macrophages as detected by Mac CD-68 staining, which was reduced by THR-123.

Row | Molecule | share of the injected dose in the beta phase ([1]; iv) [%] | alpha phase half-life ([1]; iv, 125I-labeled) | beta phase half-life ([1]; iv, 125I-labeled) [min] | decrease of THR-123 levels in plasma and whole blood within 5 minutes ([1]; iv, 125I-labeled) [%] | share of the injected dose in the alpha phase ([1]; iv, tail vein, total radioactivity) | clearance of radioactivity from the kidney ([1]; oral, 24 hours after administration) | tissue distribution of radioactivity ([1]; six hours after iv 6.25 mg/kg, listed as THR-123, 6.25 mg/kg) | reversal of EMT morphology (NP-1 cells) | binding to ALK6 (competition with 125I-BMP7) (Alk-6; listed as THR-123) | TGF-β induced expression of snail and CTGF (qPCR) (MCT cells; FIG. 52 D, E) | TGF-β-induced EMT, cell shape (co-incubation) (MCT cells; TGF-β 2.5 ng/ml 48 h, THR-123 10 μM) | reversal of EMT (MCT cells; THR-123 10 μM) | percentage of cells that regained epithelial characteristics (length to width ratio 3 or less) (MCT cells) [%] | ICAM-1 expression in kidney sections [2] | infiltration of macrophages (Mac CD-68 staining) [2] | binding to ALK6 (competition with 125I-BMP7) (Alk-6)
1 | (H)-CYFDDSSNVLCKKYRS-(OH) (H-CYFDDSSNVLCKKYRS-OH; disulfide 1-11; SMILES CC(C)C[C@@H]1NC(=O)[C@H](C(C)C)NC(=O)[C@H](CC(N)=O)NC(=O)[C@H](CO)NC(=O)[C@H](CO)NC(=O)[C@H](CC(=O)O)NC(=O)[C@H](CC(=O)O)NC(=O)[C@H](Cc2ccccc2)NC(=O)[C@H](Cc2ccc(O)cc2)NC(=O)[C@@H](N)CSSC[C@@H](C(=O)N[C@@H](CCCCN)C(=O)N[C@@H](CCCCN)C(=O)N[C@@H](Cc2ccc(O)cc2)C(=O)N[C@@H](CCCNC(=N)N)C(=O)N[C@@H](CO)C(=O)O)NC1=O) [SEQ ID NO: 1] | 10 | very short half-life | 55 to 58 | ~90 | approximately 90% | completely cleared | majority of the radioactivity was still localized in the kidney and bladder | reversal of the morphology | absolutely no competition; also recorded: does not bind | inhibited | prevents these phenotypic changes | Reversal of EMT was observed | 41 | reduced | reduced | 
2 | B1 |  |  |  |  |  |  |  | reversal of the morphology |  |  |  | Reversal of EMT was observed | 52 |  |  | binds
